Assay results as given in the RNAGym collection of RNA variant scans (doi:10.1073/pnas.2313332121).

B1: TPR t1 (parent)
chain: GACCAAUCUGCCCUCAGAGCUCGAGAACAUCUUCGGAUGCAGAGGAGGCAGGCUUCGGUGGCGCGAUAGCGCCAACGUCCUCAACCUCCAAUGCAUCCCACCACAUGAUGAUGCCUGAAGAGCCUUGGUUUUUUG

Variants of: B1
Experiment: polymerase ribozyme fitness, log enrichment relative to wild type (log ratio); higher = more active; in vitro selection for triplet polymerase activity
Procedure, shortened: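 Mutant libraries for each subunit of a heterodimeric triplet polymerase ribozyme were made by PCR and then transcribed. Each library underwent one round of in vitro selection in triplicate: annealing with a biotinylated primer, the partner subunit and triplets, frozen incubation at −7 °C, gel excision of extended constructs, streptavidin-bead capture and RT-PCR. Input and output libraries were Illumina-sequenced, and only genotypes with ≥10 input reads and ≥1 read per output were kept. Fitness is the logarithm, base 2, of genotype enrichment over wild-type enrichment, computed from inverse-variance-weighted replicate averages.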
For GACCAAUCUGCCCUCAGAGCUCGAGAACAUCUUCGGAUGAUGAGGAGGCAGGCUUCGGUGGCGCGAUAGCGCCAACGUCCUCAACCUCCAAUGCAUCCCACCACAUGAUGAUGCCUGAAGAGCCUUGGUUUUUUG, the “polymerase ribozyme fitness (log ratio)” value was -2.43.
With GACCAAUCUGCCCUCAGAGCUCGAGAACAUCUUCGGAUGAAGAGGAGGGAGGCUCCGGUGGCGCGAUAGCGCCAACGUCCUCAACCUCCAAUGCCUCCCACCACAUGAUGAUGCCUGAAAAGCCUUGGUUUUUUG the “polymerase ribozyme fitness (log ratio)” value was -2.38.
In the case of GACCAAUCUGCCCUCAGAGCUCGAGAACAUCUUCGGAUGAAGAGGAGGCAGGCUUCGGUGGCGCGAUAGCGCCAACGUCCUCAACCUCCAAUGCAUCCCACCACAUGAUGUUGCCUGAAGAGCCUUGGUUUUUUG, the “polymerase ribozyme fitness (log ratio)” value is reported as -4.74.
In the case of GACCAAUCUGCCCUCAGAGCUCGAGAACAUCUUCGGAUGAAGAGGAGGCAGGCUUCGGUGGCGCGAUAGCGCCAACGUGCUCAACCUCCAAUGCAUCCCACCACAUGAUGAUGCCUGAAGAGCCUUGGUUUUUUG, the “polymerase ribozyme fitness (log ratio)” value is reported as -3.35.
With GACCAAUCUGCCCUCAGAGCUCGAGAACAUCUUCGGAUGAAGUGGAGGCAGGCUUCGGUGGCUCGAUAGCGCCAACGUCCUCAACCUCUAAUGCAUCCCACUACACGAUGAUGCCUGAAGAGACUUGGUUUUUUG the “polymerase ribozyme fitness (log ratio)” value was -7.19.
With GACCAAUCUGCCCUCAGAGCUCGAGAACAUCUUCGGAUGAAGAGGAGGAAGGCUUCGGUGGCGCGAUAGCGCCAACGUCCUCAACGUCCAAUGCAUCCCACCACAUGAUGAUGCCUGAAGAGCCUUGGUUUUUUG the “polymerase ribozyme fitness (log ratio)” value was -3.35.
In the case of GACCAAUCUGCCCUCAGAGCUCGAGAACAUCUUCGGAUGAAGAGGUGGCAGGCUUCGGUGGCGCGAUAGCGCCAACGUCCUCAACCUCCAAUGCAUCCCACCACAUGAUGAUGCCUGAAGAGCCUUGGUUUUUUG, the “polymerase ribozyme fitness (log ratio)” value is reported as -3.32.
With GACCAAUCUGCCCUCAGAGCUCGAGAACAUCUUCGGAUGAAGUGGAGGCAGGCUUCGGUGGCGCGAUAGCGCCAACGUCCUCAACCUCUAAUGCAUCCCACUACACGAUGAUGCCUGAAGAGACUUGGUUUUUUG the “polymerase ribozyme fitness (log ratio)” value was -6.44.
For GACCAAUCUGCCCUCAGAGCUCGAGAACAUCUUCGGAUGAAGAGGAGGCAGGCUUCGGUGGCGCGAUAGCGCUAACGUCCUCAACCUCCAAUGCAUCCCACCACAUGAUGAUGCCUGAAGAGCCGUGGUUUUUUG, the “polymerase ribozyme fitness (log ratio)” value was -1.92.
With GACCAAUCUGCCCUCAGAGCUCGAGAACAUCUUCGGAUGAUGAGGAGGCCGGCUUCGGUGGCGCGAUAGCGCCAACGUCCUCAACCUCCAAUGCAUCCCACCACAUGAUGAUGCCUGAAGAGCCUUGGUUUUUUG the “polymerase ribozyme fitness (log ratio)” value was -1.94.
With GACCAAUCUGCCCUCAGAGCUCGAGAACAUCUUCGGAUGAAGAGGAGGCAGGCUUAGGUGGCGCGAUAGCGCCAACGUCCUCAACCUCCAAUGCAUUCCACCACAUGAUGAUGCCUGAAGAGCCUUGGUUUUUUG the “polymerase ribozyme fitness (log ratio)” value was -1.12.
For GACCAAUCUGCCCUCAGAGCUCGAGAACAUCUUCGGAUGAAGAGGAGGCAGGCUUCGGUGGUGCGAUAGCGCCAACGUCCUCAACCUCCAUUCCAUCCCACCAUAUGAUGAUACCUGAAGAGCCUUGGUUUUUUG, the “polymerase ribozyme fitness (log ratio)” value was -2.62.
In the case of GACCAAUCUGCCCUCAGAGCUCGAGAACAUCUUCGGAUGAAGAGGAGGCAGGCUUCGGUGGCGCGAUAGCGCCAACGUCCUCAACCUCCAAUGGAUUCCACCACAUGAUGAUUCCUGAAGAGCCUUGGUUUUUUG, the “polymerase ribozyme fitness (log ratio)” value is reported as -7.66.
In the case of GACCAAUCUGCCCUCAGAGCUCGAGAACAUCUUCGGAUGAAGAGGAGGCAGGCUUCGGUGGCGCGAUAGCGCCAACGUCCUCAACCUCCAGUGCAUCCUACCACAUGAUGUUGCCUGAAGAACCUUGGUUUUUUG, the “polymerase ribozyme fitness (log ratio)” value is reported as -6.79.
For GACCAAUCUGCCCUCAGAGCUCGAGAACAUCUUCGGAUGAAGAGGAGGCAGGCUUCGGUGGCGCGAUAGUGCCAACGUCCUCAACCUCCAAUGCAUCCCACCACAUGAUGAUGCCUGAAGAGCCUUGGUUUUUUG, the “polymerase ribozyme fitness (log ratio)” value was -0.716.
For GACCAAUCUGCCCUCAGAGCUCGAGAACAUCUUCGGAUGAAGAGGAGGCAGGCUUCGGUGGCGCGAUAGCGCCAACGUCCUCAACCUCCAAUGCAUCCCACCACAUGGUGAUGCCUGAGGAUCCUUGGUUUUUUG, the “polymerase ribozyme fitness (log ratio)” value was -2.47.
With GACCAAUCUGCCCUCAGAGCUCGAGAACAUCUUCGGAUGAAGAGGAGGCAGGCUUGGGUGGCGCGAUAGCGCCAACGUCCUCAACCUCCAAUGCAUCCCACCACCGGAUGAUGCCUGAAGAGCCUUGGUUUUUUG the “polymerase ribozyme fitness (log ratio)” value was -4.78.
In the case of GACCAAUCUGCCCUCAGAGCUCGAGAACAUCUUCGGAUGAAGGGGAGGCAGGUUUCGAUGGCGCGAUAGCGCCAACGUCCUCAACCUCCAAUGCAUCCCACCACAUGAUGAUGCCUGAAGAGCCUUGGUUUUUUG, the “polymerase ribozyme fitness (log ratio)” value is reported as -4.13.
For GACCAAUCUGCCCUCAGAGCUCGAGAACAUCUUCGGAUGAAGAGGAGGCAGGCUUGGGUAGCGCGAUAGCGCCAACGUCCUCAACCUCCAAUGCAUCCCACCACAUGAUGAUGCCUGAAGAGCCUUGGUUUUUUG, the “polymerase ribozyme fitness (log ratio)” value was -3.73.
In the case of GACCAAUCUGCCCUCAGAGCUCGAGAACAUCUUCGGAUGAAGAGGAGGCAGGCUUCGGUGGCGCGAUAGCGUCAACCUCCUCAACCUCCAAUGCAUCCCACCACAUGAUUAUGCCUGAAGAGCCUUGGUUUUUUG, the “polymerase ribozyme fitness (log ratio)” value is reported as -3.75.
In the case of GACCAAUCUGCCCUCAGAGCUCGAGAACAUCUUCGGAUGAAGAGGAGGCAGGCUUCGGUGGCGCGAUAGUGCCAACGUCCUCAACCUCCAAUGCAUCCCACCACAUGAUGAUACCUGAAGAGCCUUGGUUUUUUG, the “polymerase ribozyme fitness (log ratio)” value is reported as -2.79.
